In US20220026447A1 (SOONCHUNHYANG UNIVERSITY INDUSTRY ACADEMY COOPERATION …, published 2022):

What was measured:
[1] = biological target: T1, human FUS (fused in sarcoma) protein (human, UniProt P35637 1-526); experiment: immunofluorescence co-localisation in Drosophila brain neurons (anti-GstO2 / anti-FUS)
T1 construct: Human FUS was expressed in Drosophila neurons with the elav-Gal4 driver and seen as cytoplasmic aggregates; also called human wild-type FUS; FUS aggregate
T1 sequence: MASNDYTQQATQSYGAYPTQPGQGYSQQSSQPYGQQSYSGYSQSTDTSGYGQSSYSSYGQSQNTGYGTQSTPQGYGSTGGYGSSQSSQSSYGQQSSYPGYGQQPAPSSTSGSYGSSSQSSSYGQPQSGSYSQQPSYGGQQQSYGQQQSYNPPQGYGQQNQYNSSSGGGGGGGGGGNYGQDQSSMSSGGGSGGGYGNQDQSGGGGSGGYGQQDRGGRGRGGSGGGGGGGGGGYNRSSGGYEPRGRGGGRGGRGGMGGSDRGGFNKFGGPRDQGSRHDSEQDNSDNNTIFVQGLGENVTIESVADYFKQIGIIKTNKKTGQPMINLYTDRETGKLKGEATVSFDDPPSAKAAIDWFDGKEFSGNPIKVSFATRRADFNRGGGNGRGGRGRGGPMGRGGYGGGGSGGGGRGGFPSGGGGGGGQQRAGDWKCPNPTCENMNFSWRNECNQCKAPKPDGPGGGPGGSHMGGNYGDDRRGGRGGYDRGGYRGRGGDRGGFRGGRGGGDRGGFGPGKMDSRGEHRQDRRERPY

[2] = biological target: T2, human FUS (fused in sarcoma) protein
T2 chain: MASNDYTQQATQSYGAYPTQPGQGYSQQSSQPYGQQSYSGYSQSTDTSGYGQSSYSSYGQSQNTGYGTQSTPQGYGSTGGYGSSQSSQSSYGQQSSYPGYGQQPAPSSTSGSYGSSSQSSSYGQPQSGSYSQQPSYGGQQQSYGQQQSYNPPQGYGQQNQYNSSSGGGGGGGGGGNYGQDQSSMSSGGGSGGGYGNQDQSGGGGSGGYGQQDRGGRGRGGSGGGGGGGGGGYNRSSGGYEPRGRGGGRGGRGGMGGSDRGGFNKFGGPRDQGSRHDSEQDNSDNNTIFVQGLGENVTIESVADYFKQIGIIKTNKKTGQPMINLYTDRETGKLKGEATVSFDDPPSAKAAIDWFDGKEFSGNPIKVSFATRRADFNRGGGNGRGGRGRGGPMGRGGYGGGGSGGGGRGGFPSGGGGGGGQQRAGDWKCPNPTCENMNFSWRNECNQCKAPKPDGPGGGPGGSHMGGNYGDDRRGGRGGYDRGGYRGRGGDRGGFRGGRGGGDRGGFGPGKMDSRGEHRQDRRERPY

binding result [1]: binds
B1: Drosophila omega class glutathione transferase 2 (GstO2) (enzyme)
chain: MALPQKHFKRGSTKPELPEDGVPRFFSMAFCPFSHRVRLMLAAKHIEHHKIYVDLIEKPEWYKDFSPLGKVPALQLTGVKDQPTLVESLIIAEYLDQQYPQTRLFPTDPLQKALDKILIERFAPVVSAIYPVLTCNPNAPKDAIPNFENALDVFEVELGKRGTPYFAGQHIGIVDYMIWPWFERFPSMKINTEQKYELDTKRFEKLLKWRDLMTQDEVVQKTALDVQLHAEFQKSKTLGNPQYDIAFKGTP
notes: also called endogenous GstO2
FUS glutathionylation and FUS aggregate formation (double immunofluorescence of fly brain tissue, anti-FUS / anti-GSH) [2]: GstO2 coexpression inhibits an increase in formation of a FUS aggregate, and reduces FUS glutathionylation
